Measured values published in the Immune Epitope Database (IEDB).
pIC50, pKd: −log10 of the molar value.

Experiments:
[1] = target: HLA-B*15:01; assay: IEDB peptide-MHC binding, purified MHC/competitive/fluorescence; ≥ and ≤ were set here for values at or beyond the usual limits of such assays
[2] = target: HLA-A*24:02; assay: as above
[3] = target: HLA-A*03:01; assay: as above
[4] = target: HLA-A*11:01; assay: as above
[5] = target: HLA-A*02:17; assay: IEDB peptide-MHC binding, purified MHC/competitive/radioactivity; filed as Kd, often an IC50 or EC50 that approximates it; ≥ and ≤ were set here for values at or beyond the usual limits of such assays
[6] = target: HLA-A*02:03; assay: as above
[7] = target: HLA-A*02:01; assay: as above
[8] = target: HLA-A*03:01; assay: IEDB peptide-MHC binding, purified MHC/competitive/fluorescence; filed as Kd, often an IC50 or EC50 that approximates it; ≥ and ≤ were set here for values at or beyond the usual limits of such assays
[9] = target: HLA-A*68:02; assay: IEDB peptide-MHC binding, purified MHC/competitive/radioactivity; filed as Kd, often an IC50 or EC50 that approximates it; ≥ and ≤ were set here for values at or beyond the usual limits of such assays
[10] = target: HLA-A*02:06; assay: as above
[11] = target: HLA-A*02:02; assay: as above
[12] = target: HLA-A*02:01; assay: IEDB peptide-MHC binding, purified MHC/competitive/fluorescence; ≥ and ≤ were set here for values at or beyond the usual limits of such assays
[13] = target: HLA-A*69:01; assay: IEDB peptide-MHC binding, purified MHC/direct/fluorescence; filed as Kd, often an IC50 or EC50 that approximates it; ≥ and ≤ were set here for values at or beyond the usual limits of such assays; conditions: source organism: dengue virus type 3
[14] = target: HLA-A*01:01; assay: IEDB peptide-MHC binding, purified MHC/competitive/radioactivity; filed as Kd, often an IC50 or EC50 that approximates it; ≥ and ≤ were set here for values at or beyond the usual limits of such assays; conditions: source organism: Lassa virus Josiah
[15] = target: HLA-A*30:02; assay: as above; conditions: source organism: Lassa virus Josiah
[16] = target: HLA-A*26:01; assay: as above; conditions: source organism: Lassa virus Josiah
[17] = target: HLA-A*30:01; assay: as above; conditions: source organism: Lassa virus Josiah
[18] = target: HLA-A*32:01; assay: as above; conditions: source organism: Lassa virus Josiah
[19] = target: HLA-A*29:02; assay: as above; conditions: source organism: Lassa virus Josiah
[20] = target: HLA-B*07:02; assay: as above; conditions: source organism: Dengue virus 2 Jamaica/1409/1983
[21] = target: HLA-A*01:01; assay: IEDB peptide-MHC binding, purified MHC/direct/fluorescence; filed as Kd, often an IC50 or EC50 that approximates it; ≥ and ≤ were set here for values at or beyond the usual limits of such assays; conditions: source organism: Homo sapiens
[22] = target: HLA-B*18:01; assay: IEDB peptide-MHC binding, purified MHC/competitive/fluorescence; filed as Kd, often an IC50 or EC50 that approximates it; ≥ and ≤ were set here for values at or beyond the usual limits of such assays; conditions: source organism: Homo sapiens
[23] = target: HLA-A*69:01; assay: as above; conditions: source organism: Homo sapiens
[24] = target: HLA-B*39:01; assay: as above; conditions: source organism: Homo sapiens
[25] = target: HLA-B*57:01; assay: as above; conditions: source organism: Homo sapiens
[26] = target: HLA-B*27:03; assay: as above; conditions: source organism: Homo sapiens
[27] = target: HLA-B*51:01; assay: as above; conditions: source organism: Homo sapiens
[28] = target: HLA-B*46:01; assay: as above; conditions: source organism: Homo sapiens
[29] = target: HLA-A*02:01; assay: as above; conditions: source organism: Homo sapiens
[30] = target: HLA-B*15:01; assay: IEDB peptide-MHC binding, purified MHC/competitive/radioactivity; filed as Kd, often an IC50 or EC50 that approximates it; ≥ and ≤ were set here for values at or beyond the usual limits of such assays; conditions: source organism: Dengue virus 3 Sri Lanka/1266/2000
[31] = target: HLA-B*08:01; assay: as above; conditions: source organism: Dengue virus 3 Sri Lanka/1266/2000
[32] = source organism: Zaire ebolavirus
[33] = source organism: Dengue virus 3 Sri Lanka/1266/2000
[34] = source organism: Trypanosoma cruzi
[35] = source organism: Dengue virus 4 Philippines/H241/1956
[36] = source organism: Vaccinia virus Copenhagen
[37] = source organism: Dengue virus 1 Singapore/S275/1990
[38] = source organism: Dengue virus 1 Brazil/97-11/1997
[39] = source organism: Dengue virus 2 Jamaica/1409/1983
[40] = source organism: Dengue virus 3 China/80-2/1980
[41] = source organism: Dengue virus 3 Martinique/1243/1999
[42] = source organism: Vaccinia virus
[43] = source organism: Lassa virus Josiah

Q: With AQREIFSAW as the sequence, how does the pIC50 ([1]; source organism: Variola virus) read?
A: 5.19

Q: And the pIC50 ([2]; source organism: Variola virus)?
A: 7.41

Q: With CAGDFAFHK as the sequence, how does the pIC50 [3, 32] read?
A: 4.19

Q: And the pIC50 [4, 32]?
A: 5.86

Q: What does the source list for CLMMILPAAL?
A: pKd [5, 33]: 6.77; pKd [6, 33]: 7.41; pKd [7, 33]: 7.81

Q: How did the pKd ([8]; source organism: Listeria monocytogenes EGD-e) turn out when CLRIPMTDH was run?
A: ≤ 4.70

Q: With DLYEEEMREL as the sequence, how does the pKd ([9]; source organism: Homo sapiens) read?
A: 4.87

Q: With FLHKRFTLV as the sequence, how does the pKd [10, 34] read?
A: 8.86

Q: And the pKd [9, 34]?
A: 5.88

Q: And the pKd [6, 34]?
A: 9.94

Q: And the pKd [11, 34]?
A: 9.59

Q: And the pKd [7, 34]?
A: 9.21

Q: How did the pKd [5, 35] turn out when FLMVLLIPEP was run?
A: ≤ 4.35

Q: And the pKd [7, 35]?
A: 7.50

Q: GAMVEYVSA was tested. Which pIC50 [1, 36] did it give?
A: 4.59

Q: And the pIC50 [12, 36]?
A: 4.48

Q: GISRNTVKR was tested. Which pKd ([8]; source organism: Escherichia coli 536) did it give?
A: ≤ 4.70

Q: GMFRTVGQL was tested. Which pKd ([9]; source organism: Homo sapiens) did it give?
A: ≤ 4.22

Q: How did the pKd [5, 37] turn out when IIFILLMLV was run?
A: 6.48

Q: What about the pKd [10, 38] of the same sequence?
A: 5.93

Q: What about the pKd [6, 38] of the same sequence?
A: 6.66

Q: And the pKd [7, 37]?
A: 7.36

Q: How did the pKd [5, 39] turn out when ILIGVIITWI was run?
A: 4.75

Q: And the pKd [7, 39]?
A: 7.04

Q: With ILTDGPERV as the sequence, how does the pKd [13] read?
A: ≤ 4.70

Q: What about the pKd [5, 40] of the same sequence?
A: 5.05

Q: What about the pKd [6, 41] of the same sequence?
A: 6.89

Q: KAALSSLAK was tested. Which pIC50 [1, 32] did it give?
A: ≤ 3.96

Q: And the pIC50 [3, 32]?
A: 5.27

Q: And the pIC50 [4, 32]?
A: 6.32

Q: KLSLTKLFS was tested. Which pIC50 ([3]; source organism: Variola virus) did it give?
A: 4.47

Q: And the pIC50 ([12]; source organism: Variola virus)?
A: 5.53

Q: With KLSYRNKPS as the sequence, how does the pIC50 [3, 42] read?
A: ≤ 3.55

Q: And the pIC50 [12, 42]?
A: ≤ 3.71

Q: How did the pKd ([8]; source organism: Burkholderia vietnamiensis G4) turn out when KMARAGLGK was run?
A: 7.69

Q: How did the pKd ([8]; source organism: Vibrio parahaemolyticus K5030) turn out when KVHAVLTEK was run?
A: 7.69

Q: With LAIPPTAGV as the sequence, how does the pKd [9, 41] read?
A: 8.50

Q: With LFGIKCIKK as the sequence, how does the pIC50 [3, 42] read?
A: 4.50

Q: And the pIC50 [4, 42]?
A: 5.09

Q: With LISIFLHLV as the sequence, how does the pKd [14] read?
A: 5.72

Q: What about the pKd [10, 43] of the same sequence?
A: 7.09

Q: And the pKd [9, 43]?
A: 7.19

Q: And the pKd [15]?
A: 5.04

Q: And the pKd [6, 43]?
A: 7.68

Q: And the pKd [16]?
A: 4.99

Q: And the pKd [11, 43]?
A: 7.95

Q: And the pKd [17]?
A: 5.93

Q: What about the pKd [7, 43] of the same sequence?
A: 7.33

Q: And the pKd [18]?
A: 5.17

Q: And the pKd [19]?
A: 4.93

Q: What does the source list for LLGLWGFAAL?
A: pKd [10, 34]: 6.33; pKd [9, 34]: ≤ 3.90; pKd [6, 34]: 7.44; pKd [11, 34]: 7.55; pKd [7, 34]: 6.65

Q: What does the source list for LLILCVTQV?
A: pKd [5, 39]: 5.22; pKd [6, 39]: 8.12; pKd [7, 39]: 7.57

Q: How did the pKd [5, 33] turn out when LMMILPAALA was run?
A: 5.74

Q: What about the pKd [6, 33] of the same sequence?
A: 7.01

Q: What about the pKd [7, 33] of the same sequence?
A: 7.96

Q: LQLPRDRFK was tested. Which pIC50 [3, 32] did it give?
A: 5.27

Q: What about the pIC50 [4, 32] of the same sequence?
A: 5.75

Q: How did the pKd ([8]; source organism: Vibrio parahaemolyticus AQ3810) turn out when MMYTVSLGH was run?
A: 8.92

Q: MVSILASSL was tested. Which pKd [9, 39] did it give?
A: 6.87

Q: And the pKd [20]?
A: 6.00

Q: With MVTRFESLK as the sequence, how does the pKd ([8]; source organism: Influenza A virus (A/Swine/Minnesota/55551/2000(H1N2))) read?
A: 6.79

Q: NTTGKLIWK was tested. Which pIC50 [3, 32] did it give?
A: 4.61

Q: What about the pIC50 [4, 32] of the same sequence?
A: 5.98

Q: With QQTNAMVTL as the sequence, how does the pIC50 [1, 32] read?
A: ≤ 4.12

Q: And the pIC50 [12, 32]?
A: 4.41

Q: And the pIC50 [2, 32]?
A: 4.23

Q: With QTNAMVTLR as the sequence, how does the pIC50 [3, 32] read?
A: 4.79

Q: What about the pIC50 [4, 32] of the same sequence?
A: 5.92

Q: How did the pKd [10, 38] turn out when QVFGTAYGV was run?
A: 8.14

Q: What about the pKd [9, 38] of the same sequence?
A: 9.02

Q: How did the pIC50 ([1]; source organism: Variola virus) turn out when QVPKLLLWF was run?
A: ≤ 3.43

Q: What about the pIC50 ([12]; source organism: Variola virus) of the same sequence?
A: 5.69

Q: With RLITVNPIV as the sequence, how does the pKd [5, 39] read?
A: 6.21

Q: What about the pKd [6, 39] of the same sequence?
A: 7.20

Q: With SKRERQLAK as the sequence, how does the pIC50 [3, 36] read?
A: 4.52

Q: What does the source list for TLIASLVMLL?
A: pKd [5, 35]: 7.24; pKd [6, 35]: 7.54; pKd [7, 35]: 7.31

Q: With TVAANEMGL as the sequence, how does the pKd [9, 38] read?
A: 7.18

Q: Which results are given for VAGLITGGR?
A: pIC50 [3, 32]: ≤ 3.98; pIC50 [4, 32]: 4.58; pIC50 [12, 32]: ≤ 3.18

Q: What does the source list for VIFILLMLV?
A: pKd [5, 40]: 6.04; pKd [10, 41]: 5.63; pKd [6, 41]: 6.77

Q: With VLWEGGHDL as the sequence, how does the pKd [5, 35] read?
A: 6.34

Q: What about the pKd [7, 35] of the same sequence?
A: 7.84

Q: How did the pIC50 [1, 32] turn out when VQRQIQVHA was run?
A: 4.87

Q: What about the pIC50 [12, 32] of the same sequence?
A: 4.34

Q: With VTSSVSSGY as the sequence, how does the pKd [21] read?
A: 8.27

Q: And the pKd [22]?
A: ≤ 4.70

Q: What about the pKd [23] of the same sequence?
A: ≤ 4.70

Q: And the pKd [24]?
A: ≤ 4.70

Q: And the pKd [25]?
A: ≤ 4.70

Q: And the pKd [26]?
A: ≤ 4.70

Q: What about the pKd [27] of the same sequence?
A: ≤ 4.70

Q: And the pKd [28]?
A: ≤ 4.70

Q: And the pKd [29]?
A: ≤ 4.70

Q: How did the pKd [5, 39] turn out when WMTTEDMLAV was run?
A: 5.60

Q: And the pKd [10, 39]?
A: 7.60

Q: And the pKd [6, 39]?
A: 7.69

Q: What about the pKd [7, 39] of the same sequence?
A: 7.08

Q: With YLALLAAFKV as the sequence, how does the pKd [5, 39] read?
A: 7.21

Q: And the pKd [10, 39]?
A: 8.02

Q: And the pKd [6, 39]?
A: 7.82

Q: And the pKd [7, 39]?
A: 8.79

Q: How did the pKd [5, 40] turn out when YQLWTALVSL was run?
A: 7.04

Q: What about the pKd [10, 33] of the same sequence?
A: 8.23

Q: What about the pKd [30] of the same sequence?
A: 6.72

Q: What about the pKd [31] of the same sequence?
A: 6.01

Q: With YVSAIAQAKA as the sequence, how does the pKd [9, 38] read?
A: 7.66
